Test results as given in patent US7259254B2, “Mutants and assay system to identify USP/RXR ligands” (University of Kentucky Research Foundation, priority 2002, dated 2007).
Where a chain is given by its changes, count along the chain named. In names and notes the source's numbering stands. Entries after “also recorded” stand apart in the source; their conditions may differ.

T1: His-tagged wild-type dUSP (Drosophila melanogaster, UniProt P20153)
T1 construct: His tag; made in house; host or cells: bacteria (pET32EK vector)
T1 sequence (P20153 1-508): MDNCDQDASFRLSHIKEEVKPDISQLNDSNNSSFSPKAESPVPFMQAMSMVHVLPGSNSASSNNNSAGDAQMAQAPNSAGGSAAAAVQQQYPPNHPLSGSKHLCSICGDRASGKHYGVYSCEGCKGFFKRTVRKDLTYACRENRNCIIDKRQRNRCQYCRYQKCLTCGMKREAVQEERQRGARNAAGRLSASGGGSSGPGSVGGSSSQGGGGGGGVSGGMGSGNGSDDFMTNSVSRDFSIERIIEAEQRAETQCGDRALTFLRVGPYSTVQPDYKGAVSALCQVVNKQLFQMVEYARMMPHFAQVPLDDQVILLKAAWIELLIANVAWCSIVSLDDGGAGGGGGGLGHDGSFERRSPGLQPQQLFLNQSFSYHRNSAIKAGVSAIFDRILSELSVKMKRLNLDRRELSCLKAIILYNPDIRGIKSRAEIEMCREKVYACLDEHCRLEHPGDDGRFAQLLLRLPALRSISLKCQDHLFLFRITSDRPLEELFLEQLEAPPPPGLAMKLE

B1: C472A/H475L: dUSP ligand-binding pocket double mutant, alanine at 472 and leucine at 475 (protein)
chain: T1 sequence (P20153 1-508) with C472A, H475L
B2: P498W/P499W/W318F/W328F: USP mutant, tryptophan at 498 and 499, phenylalanine at 318 and 328 (protein)
chain: T1 sequence (P20153 1-508) with W318F, W328F, P498W, P499W
B3: W318F/W328F: USP mutant, phenylalanine at positions 318 and 328 (protein)
chain: T1 sequence (P20153 1-508) with W318F, W328F
B4: W328F: USP mutant, phenylalanine at position 328 (protein)
chain: T1 sequence (P20153 1-508) with W328F
B5: P498W/P499W: USP mutant, two prolines at end of α-helix 12 replaced with tryptophan (protein)
chain: T1 sequence (P20153 1-508) with P498W, P499W
B6: P498W/P499W/W318F: USP mutant, tryptophan at 498 and 499, phenylalanine at 318 (protein)
chain: T1 sequence (P20153 1-508) with W318F, P498W, P499W
B7: W318F: USP mutant, phenylalanine at position 318 (protein)
chain: T1 sequence (P20153 1-508) with W318F
B8: wild-type dUSP: wild type Drosophila melanogaster Ultraspiracle receptor, SEQ ID NO: 2 (protein)
chain: T1 sequence (P20153 1-508)
modifications: Drosophila melanogaster
B9: Q288A: dUSP mutant, Gln288 mutated to alanine (protein)
chain: T1 sequence (P20153 1-508) with Q288A

How the values were obtained:
[1] = target: T1, His-tagged wild-type dUSP; test: Intrinsic tryptophan fluorescence ligand-binding assay, wild-type dUSP; details: excitation 290 nm, emission 340 nm; 0.5 μm receptor
Description: The homodimer-enriched fraction of bacterial recombinant His-dUSP fusion protein was purified by nickel resin selection, elution with imidazole, centrifugal concentration, and then gel permeation chromatography (Superdex 200) with procedures and chemical sources exactly as already described previously Jones et al. (2000) Insect Biochem. Mol. Biol. 30, 671-679. The homodimer-enriched fraction of the purified His-USP fusion protein was raised to 2 ml of NaCl and a final concentration of 0.5 μm. For a fluorescence-based ligand-binding assay based on intrinsic tryptophan fluorescence Jones et al. (2001) Insect Biochem. Mol. Biol. 32, 33-49; Jones et al (1998) Biochem. J. 335, 79-84; 79-84; Jones et al. (2000) Biochem. J. 346, 233-240; Jones et al (1997) Proc. Natl. Acad. Sci. USA 94, 13499-13503, ligand or ethanol carrier was added and the receptor preparation excited at 290 nm and monitored for emission at 340 nm, until the signal from the receptor had stabilized. Fluorescence was measured three times for each sample, with standard deviation typically smaller than the graphical plotted datum point. Each fluorescence experiment was replicated on three or more independent occasions, each time with similar results.
The ability of the wild-type dUSP and dominant negative, ligand-binding pocket mutant dUSP to bind methyl epoxyfarnesoate was tested.

[2] = system: 4DR12Core reporter promoter in Sf9 cells (endogenous USP); test: Dominant negative activity of transfected dUSP mutants on methyl epoxyfarnesoate activation of 4DR12Core reporter in Sf9 cells; type: cell-based, Spodoptera frugiperda; details: for dominant negative effect on methyl epoxyfarnesoate-induced activation of 4DR12Core promoter: receptor overexpressed in Sf9 cells, 75 μm methyl epoxyfarnesoate; for Dominant Negative Activity: Table 1, mutants envisioned
Text: In another embodiment, mutant nuclear hormone receptors disclosed herein comprise amino acid substitutions that render the mutant to act as a “dominant negative.” Dominant negative proteins exploit protein-protein interactions, i.e., the interactions between a mutated protein produced by a transgene and the related native protein inside the cell. The mutant protein forms a dimer with an integral part of a wild type endogenous protein molecule. The mutant protein interacts with a whole range of native compatible gene products. Preferably, the mutant homodimerizes or heterodimerizes with an endogenous wild type partner to form a complex following ligand or independent of ligand binding. Preferably, as opposed to a complex of wild type monomers, a complex of a mutant and its endogenous wild type partner will be incapable of initiating transcription at a hormone receptor response reporter gene. Assays for determining dominant negative activity may be found in Examples 6 and 7 as well as FIG. 4.
Spodoptera frugiperda cell line, Sf9, was maintained and transfected as described previously Jones et al (1998) Biochem. J. 335, 79-84; Jones et al. (2000) Biochem. J. 346, 233-240. As an internal control to compare activities of different constructs, 0.3 μg of a constituitive heat-shock promoter-driven β-galactosidase gene was cotransfected. To study the role of USP in activation of the nuclear hormone receptor response element fused to core promoter in methyl epoxyfarnesoate-treated cells, cloned D. melangaster USP (dUSP) cDNA and its derivatives containing mutations in the ligand-binding pocket were cotransfected with the reporter and internal control plasmids. […] After 48 h of the treatment, the cells were harvested and the activity of the luciferase reporter was measured using a luciferase assay kit (Promega) in a multipurpose scintillation counter (Beckman, Fullerton, Calif.). β-Galactosidase activity was measured using chlorophenol red-[…] monosodium (CPRG; Roche Molecular Biochemicals) as a colorimetric substrate.
His-tagged dUSP dominant negative double mutant Cys472Ala/His475Leu (C472A/H475L) was over expressed in methyl epoxyfarnesoate-treated Sf9 cells that were cotransfected with the 4DR12Core reporter plasmid.
Under the model that overexpression of the C472A/H475L double mutant competed with endogenous USP in the pathways for transduction of the exogenous methyl epoxyfarnesoate signal, the level of effect of the double mutant ought to be dependent on its dose. […] This background of the blocked activation pathway was used to test whether activation by methyl epoxyfarnesoate treatment was actually dependent on the presence of wild-type USP. […] Again, over the range of the monotonic restoration of methyl epoxyfarnesoate-activated transcription, there was no effect of the transfected wild-type dUSP on the basal level of transcription in EtOH-treated controls.

[3] = system: DR12 motif; test: Electrophoretic mobility shift assay of recombinant dUSP on DR12 probe; type: binding; details: 500 nm His-tagged receptor
Text: Nuclear extracts were isolated from Sf9 cells as previously described Jones et al. (2001) Insect Biochem. Mol. Biol. 32, 33-49; Jones et al (1998) Biochem. J. 335, 79-84; 79-84; Jones et al. (2000) Biochem. J. 346, 233-240. For the DR12 probe, the double stranded DR12 oligonucleotide (sequence as shown above) was 5′ end-labelled with ^32P by T4 polynucleotide kinase (New England Biolabs Inc.), and then purified from a 20% native polyacrylamide gel. The same double stranded DR12 oligonucleotide was used in 100-fold excess as a self competitor. For the 4DR12Core probe, the 4DR12Core sequence was liberated from the vector as a 148-bp ClaI/HindIII fragment, and was 5′ end-labelled with ^32P and purified. The same, unlabelled fragment was used at 100-fold excess as a self competitor. As a negative control for specificity in gel shifts, the 36 bp BglII/KpnI polylinker region fragment of the pGL3 vector was liberated and recovered from low melting point agarose gels and used as a 100 nonself competitor (sequence: […], SEQ ID NO: 17). […]
In addition, both receptor preparations bound to the probe similarly in part as monomer and in part as homodimer. […] Thus, any difference detected in ligand binding of the two receptors is most reasonably inferred as arising from differences in the architecture inside the cavity of the ligand-binding pocket due to the C472A/H475L point mutations.

Molecule	dominant negative effect on methyl epoxyfarnesoate-induced activation of 4DR12Core promoter [2]	Dominant Negative Activity [2]	other results
CC(C)=CCCC(C)=CCCC(C)=CCO [farnesol]			effect on receptor intrinsic fluorescence (ligand binding), wild-type dUSP [1]: do not have that effect
B1	distinct suppression; also recorded: progressive suppression		binding to DR12 motif in gel shift [3]: similarly bound to a DR12 motif
B2		Weak Activity	
B3		Weak Activity	
B4	not a dominant negative		
B5	not a dominant negative		
B6		Weak Activity	
B7	weak dominant negative	Weak Activity	
B8			binding to DR12 motif in gel shift [3]: similarly bound to a DR12 motif
B9	acted as a dominant negative suppressor		
